Our source for the Kd values is paper PMC3410656 (Nature structural & molecular biology, 2011).

This assay addresses blocked SNARE[change] (SNARE[change] with CPXcen residues 48-134 pre-bound) ( | rat | human, UniProt P63027;P32851;P60880-2;O14810). In words: ITC.

B1: wild-type complexin fragment wtCPX (hCPX1 residues 26-83) (domain or fragment)
chain: KDPDAAKKEEERQEALRQAEEERKAKYAKMEAEREAVRQGIRDKYGIKKKEEREAEAQ
As for B1, the Kd is approximately 10 µM.
